Test results taken from US5783663A, “Peptide ligands for affinity purification of fibrinogen” (Bayer Corporation, priority 1998, dated 1998).
No end group written: not given here.

Tests used:
[1] = target: T1, Human fibrinogen (Homo sapiens, UniProt P02671+P02675+P02679); assay: Fibrinogen recovery from peptide columns (acetic acid elution, A280 of eluted peak); format: binding
T1 construct: purchased Enzymes Research Labs (South Bend, Ind.)
T1 sequence (P02671 20-629 isoform P02671-2 limits assumed): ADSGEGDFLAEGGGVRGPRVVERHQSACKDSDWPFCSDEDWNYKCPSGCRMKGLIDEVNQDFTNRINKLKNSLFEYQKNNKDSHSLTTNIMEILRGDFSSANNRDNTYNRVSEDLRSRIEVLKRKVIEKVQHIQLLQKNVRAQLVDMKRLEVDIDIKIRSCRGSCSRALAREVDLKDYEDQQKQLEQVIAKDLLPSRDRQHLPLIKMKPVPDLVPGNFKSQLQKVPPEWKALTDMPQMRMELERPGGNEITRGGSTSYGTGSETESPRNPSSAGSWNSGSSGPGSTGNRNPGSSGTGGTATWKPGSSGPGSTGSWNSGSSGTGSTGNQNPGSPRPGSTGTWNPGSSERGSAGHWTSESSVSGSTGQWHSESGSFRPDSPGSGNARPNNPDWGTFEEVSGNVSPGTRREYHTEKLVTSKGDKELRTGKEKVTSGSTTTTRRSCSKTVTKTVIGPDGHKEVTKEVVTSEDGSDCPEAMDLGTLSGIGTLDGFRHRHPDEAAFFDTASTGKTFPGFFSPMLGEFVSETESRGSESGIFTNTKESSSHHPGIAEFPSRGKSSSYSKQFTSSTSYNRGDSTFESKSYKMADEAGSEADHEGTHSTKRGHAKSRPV
T1 sequence (P02675 31-491): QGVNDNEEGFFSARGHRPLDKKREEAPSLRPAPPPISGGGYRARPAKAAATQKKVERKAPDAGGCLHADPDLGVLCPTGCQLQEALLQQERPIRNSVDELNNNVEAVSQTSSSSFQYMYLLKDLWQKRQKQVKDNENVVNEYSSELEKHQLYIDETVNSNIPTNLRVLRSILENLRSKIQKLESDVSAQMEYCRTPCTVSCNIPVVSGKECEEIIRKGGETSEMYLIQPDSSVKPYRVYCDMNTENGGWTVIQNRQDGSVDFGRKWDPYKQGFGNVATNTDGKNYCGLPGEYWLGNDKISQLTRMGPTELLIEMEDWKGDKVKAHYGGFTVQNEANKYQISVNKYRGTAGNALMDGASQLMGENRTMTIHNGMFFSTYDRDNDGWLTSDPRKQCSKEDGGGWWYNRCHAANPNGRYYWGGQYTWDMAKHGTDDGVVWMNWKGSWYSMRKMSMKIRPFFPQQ
T1 sequence (P02679 27-437 isoform P02679-2 limits assumed): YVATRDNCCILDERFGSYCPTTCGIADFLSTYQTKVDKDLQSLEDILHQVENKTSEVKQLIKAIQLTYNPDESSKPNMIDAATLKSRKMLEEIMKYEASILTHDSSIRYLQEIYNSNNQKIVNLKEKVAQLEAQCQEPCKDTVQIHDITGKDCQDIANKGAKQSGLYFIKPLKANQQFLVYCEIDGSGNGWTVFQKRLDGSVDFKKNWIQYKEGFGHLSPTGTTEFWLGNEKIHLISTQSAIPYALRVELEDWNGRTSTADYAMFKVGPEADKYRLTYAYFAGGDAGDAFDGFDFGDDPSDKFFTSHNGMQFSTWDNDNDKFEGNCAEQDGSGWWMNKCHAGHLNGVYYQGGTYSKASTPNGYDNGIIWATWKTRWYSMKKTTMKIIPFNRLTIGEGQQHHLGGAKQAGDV
Method: (§1) Dried peptide resins were packed into 0.6 ml columns (0.4 cm×5 cm, Thomson, Va.), and evaluated on a Waters HPLC-system (Milford, Mass.) with a UV-detector (Knauer, Germany) monitoring at 280 nm. The columns were conditioned with over 5 volumes of 20% ethanol in water, followed by a minimum of 5 volumes of water.
(§2) Human fibrinogen was purchased from Enzymes Research Labs (South Bend, Ind.), and 25% human serum albumin (HSA) was a donation from the Bayer Corporation (Clayton, N.C.). The following buffers were used for both dissolving fibrinogen and diluting HSA.
(§3) This column was equilibrated in Buffer A, and the following program was used for each column run: From time 0-15 minutes, Buffer A was applied. At time 5 minutes, a 50 μl sample dissolved in buffer A was injected onto the column with a 100 μl sample loop. From time 15-20 minutes, bound protein was step-eluted by switching to 0.1M acetic acid, pH 2.9, followed by 0.4M acetic acid, pH 2.6, from time 20-21 minutes. The column was then re-equilibrated with Buffer A from time 21-30 minutes. During the column run, the flow rate was 1 ml/min from time 0-21 minutes; it was increased to 2 ml/min from time 21-30 minutes.
(§4) In total, seven injections were made: #1 Buffer A (blank); #2 100 μg/μl HSA; #3 20 μg/μl Fibrinogen; #4 Mixture of 5 μg/μl Fibrinogen and 90 μg/μl HSA; #5 Mixture of 10 μg/μl Fibrinogen and 75 μg/μl HSA; #6 Mixture of 20 μg/μl Fibrinogen and 50 μg/μl HSA; #7 20 μg/μl Fibrinogen.
(§5) After equilibrating in Buffer B, the following program was used for each column run: From time 0-15 minutes, Buffer B was applied. At time 5 minutes, 50 μL sample dissolved in Buffer B was injected onto the column with a 100 μl sample loop. From time 15-20 minutes, bound protein was step-eluted by switching to 20 mM acetic acid, pH 3.2, followed by 0.4M acetic acid, pH 2.6, from time 20-23 minutes. The column was then re-equilibrated with Buffer B from time 23-30 minutes. During the column run, the flow rate was 1 ml/min from time 0-23 minutes, then it was increased to 2 ml/min from time 23-30 minutes. In total, for each column seven injections were made: #1 Buffer B (blank); #2 for WQEHYN-column: 50 μg/μl HSA, and for YENYGY-column: 100 μg/μl HSA; #3 20 μg/μl Fibrinogen; #4 Mixture of 5 μg/μl Fibrinogen and […] HSA; #5 Mixture of 10 μg/μl Fibrinogen and 50 μg/μl HSA; #6 Mixture of 20 μg/μl Fibrinogen and 50 μg/μl HSA; #7 20 μg/μl Fibrinogen.
In parts (b) and (c), eluted protein was collected in 1.25 ml fractions, some in which pH was measured. The fractions were not re-adjusted to a neutral pH. The purity of the eluted protein was assessed by SDS-PAGE (Biorad) of non-reduced as well as of reduced samples. Broad Range Standards (Biorad) were used as molecular weight standards, and dithiothreitol (Sigma) was used as the reducing agent. Eluted protein was centrifuged and supernatant collected for determination of fibrinogen concentration by A280.

[2] = target: T1, Human fibrinogen; assay: Fibrinogen binding to peptide resin columns (affinity chromatography, UV 280 nm)
Method: as §1, §2
Peptide resin columns were equilibrated in Buffer A. The following program was used for each column run: From time 0-15 minutes, Buffer A was applied. At time 10 minutes, a 50 μl sample was injected onto the column with a 50 μl sample loop. From time 15-20 minutes, bound protein was step-eluted by switching to 0.4M acetic acid (Fisher), pH 2.6. The column was then re-equilibrated with Buffer A from time 20-30 minutes. A flow rate of 1 ml/min was used. For each column two injections were made: #1 Buffer A (blank); #2 10 μg/μl Fibrinogen dissolved in Buffer A.
as §3, §4, §5

[3] = target: T2, human serum albumin (HSA) (Homo sapiens, UniProt P02768); assay: HSA binding to peptide resin columns (affinity chromatography); conditions: conditions of the experimental section, FIGS. 3-5
T2 construct: purchased Bayer Corporation (Clayton, N.C.), donated rather than bought
Method: as §1, §2
This column was equilibrated in Buffer A, and the following program was used for each column run: From time 0-15 minutes, Buffer A was applied. At time 5 minutes, a 50 μl sample dissolved in buffer A was injected onto the column with a 100 μl sample loop. From time 15-20 minutes, bound protein was step-eluted by switching to 0.1M acetic acid, pH 2.9, followed by 0.4M acetic acid, pH 2.6, from time 20-21 minutes. The column was then re-equilibrated with Buffer A from time 21-30 minutes. During the column run, the flow rate was 1 ml/min from time 0-21 minutes; it was increased to 2 ml/min from time 21-30 minutes. […]

[4] = Column run #3, injected 1000 μg fibrinogen (20 μg/μl fibrinogen alone)
[5] = Column run #4, injected 250 μg fibrinogen (5 μg/μl, mixture with HSA)
[6] = Column run #5, injected 500 μg fibrinogen (10 μg/μl, mixture with HSA)
[7] = Column run #6, injected 1000 μg fibrinogen (20 μg/μl, mixture with 50 μg/μl HSA)
[8] = Column run #7, injected 1000 μg fibrinogen (20 μg/μl fibrinogen alone)
[9] = conditions of the experimental section, FIGS. 3-5

Substance	Fibrinogen recovery, column peak [1, 4]	Fibrinogen recovery, column peak [1, 5]	Fibrinogen recovery, column peak [1, 6]	Fibrinogen recovery, column peak [1, 7]	Fibrinogen recovery, column peak [1, 8]	fibrinogen binding to peptide column [2, 9]	HSA binding to peptide column [3]	fibrinogen binding to peptide column ([2]; Buffer A (preliminary test / later tests))	fibrinogen binding to peptide column ([2]; Buffer B)
Trp-Gln-Glu-His-Tyr-Asn (WQEHYN; not fully specified (C-terminus); printed as Trp-Gln-Glu-His-Tyr-Asn) [hexapeptide ligand synthesized onto TOTDA-modified Toyopearl resin]	330 µg	70 µg	140 µg	220 µg	240 µg	bound fibrinogen	none of these peptides bound HSA	–	–
Trp-Gln-Glu-Thr-Tyr-Gln (WQETYQ; not fully specified (C-terminus); printed as Trp-Gln-Glu-Thr-Tyr-Gln) [hexapeptide ligand synthesized onto TOTDA-modified Toyopearl resin]	360 µg	100 µg	150 µg	310 µg	340 µg	bound fibrinogen	none of these peptides bound HSA	–	–
Tyr-Glu-Asn-Tyr-Gly-Tyr (YENYGY; not fully specified (C-terminus); printed as Tyr-Glu-Asn-Tyr-Gly-Tyr) [hexapeptide ligand synthesized onto TOTDA-modified Toyopearl resin]	530 µg	150 µg	280 µg	520 µg	530 µg	bound fibrinogen	–	–	–
W-E-Q-(S)-N-P (WEQSNP)	–	–	–	–	–	–	–	did not bind fibrinogen	did not bind fibrinogen
